Measurements reported in the RNAGym collection of RNA variant scans (doi:10.1021/acssynbio.7b00057).

B1: Pistol ribozyme (parent)
chain: GGGUCGUUGUUCCAUAAUCGCGUGGAUAUGGCACGCAAGUUUCUACCGGGCACCGUAAAUGUCCGACUGGAGCCGUUCGGGCGGCUAUAAACAGACCUCAGGCCCGAAGCGUGGCGGCACCUGCCGCCGGUGGUAAAAAAGAUCGGAAGAGCACACGUCU

Variants of: B1
Assay: aptazyme ON/OFF ratio, guanine; higher = stronger switching; co-transcriptional cleavage with and without guanine

Going from GGGUCGCCGUUCUAUAAUCGCGUGGAUAUGGCACGCAAGUUUCUACCGGGCACCGUAAAUGUCCGACUGGAGCCGUUCGGGCGGCUAUAAACAGACCUCAGGCCCGAAGCGUGGCGGCACCUGCCGCCGGUGGUAAAAAAGAUCGGAAGAGCACACGUCU [U7C U8C C13U] to GGGUCGCCGUUCAAUAAUCGCGUGGAUAUGGCACGCAAGUUUCUACCGGGCACCGUAAAUGUCCGACUGGAGCCGUUCGGGCGGCUAUAAACAGACCUCAGGCCCGAAGCGUGGCGGCACCUGCCGCCGGUGGUAAAAAAGAUCGGAAGAGCACACGUCU [U7C U8C C13A], the “aptazyme ON/OFF ratio” value falls from 1.56 to 1.21.

First: GGGUCGCCGUUCGAUAAUCGCGUGGAUAUGGCACGCAAGUUUCUACCGGGCACCGUAAAUGUCCGACUGGAGCCGUUCGGGCGGCUAUAAACAGACCUCAGGCCCGAAGCGUGGCGGCACCUGCCGCCGGUGGUAAAAAAGAUCGGAAGAGCACACGUCU [U7C U8C C13G]
Second: GGGUCGCCAUUGGAUAAUCGCGUGGAUAUGGCACGCAAGUUUCUACCGGGCACCGUAAAUGUCCGACUGGAGCCGUUCGGGCGGCUAUAAACAGACCUCAGGCCCGAAGCGUGGCGGCACCUGCCGCCGGUGGUAAAAAAGAUCGGAAGAGCACACGUCU [U7C U8C G9A C12G C13G]
The “aptazyme ON/OFF ratio” value of the first is lower: 1.17 for the first, 1.28 for the second.

Going from GGGUCGCCAUUGAAUAAUCGCGUGGAUAUGGCACGCAAGUUUCUACCGGGCACCGUAAAUGUCCGACUGGAGCCGUUCGGGCGGCUAUAAACAGACCUCAGGCCCGAAGCGUGGCGGCACCUGCCGCCGGUGGUAAAAAAGAUCGGAAGAGCACACGUCU [U7C U8C G9A C12G C13A] to GGGUCGCCAUUACAUAAUCGCGUGGAUAUGGCACGCAAGUUUCUACCGGGCACCGUAAAUGUCCGACUGGAGCCGUUCGGGCGGCUAUAAACAGACCUCAGGCCCGAAGCGUGGCGGCACCUGCCGCCGGUGGUAAAAAAGAUCGGAAGAGCACACGUCU [U7C U8C G9A C12A], the “aptazyme ON/OFF ratio” value rises from 1.25 to 1.51.

First: GGGUCGCCAUUGCAUAAUCGCGUGGAUAUGGCACGCAAGUUUCUACCGGGCACCGUAAAUGUCCGACUGGAGCCGUUCGGGCGGCUAUAAACAGACCUCAGGCCCGAAGCGUGGCGGCACCUGCCGCCGGUGGUAAAAAAGAUCGGAAGAGCACACGUCU [U7C U8C G9A C12G]
Second: GGGUCGCCGUUUUAUAAUCGCGUGGAUAUGGCACGCAAGUUUCUACCGGGCACCGUAAAUGUCCGACUGGAGCCGUUCGGGCGGCUAUAAACAGACCUCAGGCCCGAAGCGUGGCGGCACCUGCCGCCGGUGGUAAAAAAGAUCGGAAGAGCACACGUCU [U7C U8C C12U C13U]
The “aptazyme ON/OFF ratio” value of the first is higher: 1.41 for the first, 1.29 for the second.

First: GGGUCGCCGUUUAAUAAUCGCGUGGAUAUGGCACGCAAGUUUCUACCGGGCACCGUAAAUGUCCGACUGGAGCCGUUCGGGCGGCUAUAAACAGACCUCAGGCCCGAAGCGUGGCGGCACCUGCCGCCGGUGGUAAAAAAGAUCGGAAGAGCACACGUCU [U7C U8C C12U C13A]
Second: GGGUCGCCGUUUGAUAAUCGCGUGGAUAUGGCACGCAAGUUUCUACCGGGCACCGUAAAUGUCCGACUGGAGCCGUUCGGGCGGCUAUAAACAGACCUCAGGCCCGAAGCGUGGCGGCACCUGCCGCCGGUGGUAAAAAAGAUCGGAAGAGCACACGUCU [U7C U8C C12U C13G]
The “aptazyme ON/OFF ratio” value of the first is higher: 1.41 for the first, 1.2 for the second.

Compared with GGGUCGCCAUUCCAUAAUCGCGUGGAUAUGGCACGCAAGUUUCUACCGGGCACCGUAAAUGUCCGACUGGAGCCGUUCGGGCGGCUAUAAACAGACCUCAGGCCCGAAGCGUGGCGGCACCUGCCGCCGGUGGUAAAAAAGAUCGGAAGAGCACACGUCU [U7C U8C G9A], GGGUCGCCAUUAUAUAAUCGCGUGGAUAUGGCACGCAAGUUUCUACCGGGCACCGUAAAUGUCCGACUGGAGCCGUUCGGGCGGCUAUAAACAGACCUCAGGCCCGAAGCGUGGCGGCACCUGCCGCCGGUGGUAAAAAAGAUCGGAAGAGCACACGUCU [U7C U8C G9A C12A C13U] is lower in “aptazyme ON/OFF ratio” value: 1.59 for the first, 1.42 for the second.

Going from GGGUCGCCAUUAAAUAAUCGCGUGGAUAUGGCACGCAAGUUUCUACCGGGCACCGUAAAUGUCCGACUGGAGCCGUUCGGGCGGCUAUAAACAGACCUCAGGCCCGAAGCGUGGCGGCACCUGCCGCCGGUGGUAAAAAAGAUCGGAAGAGCACACGUCU [U7C U8C G9A C12A C13A] to GGGUCGCCAUUAGAUAAUCGCGUGGAUAUGGCACGCAAGUUUCUACCGGGCACCGUAAAUGUCCGACUGGAGCCGUUCGGGCGGCUAUAAACAGACCUCAGGCCCGAAGCGUGGCGGCACCUGCCGCCGGUGGUAAAAAAGAUCGGAAGAGCACACGUCU [U7C U8C G9A C12A C13G], the “aptazyme ON/OFF ratio” value falls from 1.24 to 1.05.

Compared with GGGUCGCCGUUGAAUAAUCGCGUGGAUAUGGCACGCAAGUUUCUACCGGGCACCGUAAAUGUCCGACUGGAGCCGUUCGGGCGGCUAUAAACAGACCUCAGGCCCGAAGCGUGGCGGCACCUGCCGCCGGUGGUAAAAAAGAUCGGAAGAGCACACGUCU [U7C U8C C12G C13A], GGGUCGCCGUUGGAUAAUCGCGUGGAUAUGGCACGCAAGUUUCUACCGGGCACCGUAAAUGUCCGACUGGAGCCGUUCGGGCGGCUAUAAACAGACCUCAGGCCCGAAGCGUGGCGGCACCUGCCGCCGGUGGUAAAAAAGAUCGGAAGAGCACACGUCU [U7C U8C C12G C13G] is higher in “aptazyme ON/OFF ratio” value: 1.12 for the first, 1.14 for the second.

First: GGGUCGCCGUUGUAUAAUCGCGUGGAUAUGGCACGCAAGUUUCUACCGGGCACCGUAAAUGUCCGACUGGAGCCGUUCGGGCGGCUAUAAACAGACCUCAGGCCCGAAGCGUGGCGGCACCUGCCGCCGGUGGUAAAAAAGAUCGGAAGAGCACACGUCU [U7C U8C C12G C13U]
Second: GGGUCGCCGUUUCAUAAUCGCGUGGAUAUGGCACGCAAGUUUCUACCGGGCACCGUAAAUGUCCGACUGGAGCCGUUCGGGCGGCUAUAAACAGACCUCAGGCCCGAAGCGUGGCGGCACCUGCCGCCGGUGGUAAAAAAGAUCGGAAGAGCACACGUCU [U7C U8C C12U]
The “aptazyme ON/OFF ratio” value of the first is lower: 1.15 for the first, 1.75 for the second.
